Test results as given in paper doi:10.1101/2025.10.08.681152 (bioRxiv, 2025).

Molecular target: EGFP, C-terminally biotinylated (Aequorea victoria GFP, engineered EGFP …, biotin on the C-terminal biotin acceptor peptide)
Experiment: BLI

- Kd: 0.75 nM
- koff: 7.1e-05 s⁻¹
- kon: 94000 M⁻¹ s⁻¹
B1: GBP* (engineered GFP-Binding Protein, unconjugated) (VHH)
VHH: QVQLVESGGALVQPGGSLRLSCAASGFPVNRYSMRWYRQAPGREREWVAGMSSAGDRSSYEDSVRGRFTISRDDARNTVYLQMNSLRPEDTAVYYCNVNVGFEYWGQGTQVTVSS
